Assay results taken from patent US20190015518A1, “DRUG DELIVERY COMPOSITIONS AND METHODS” (priority 2016, published 2019).

Columns and labels:
[1] = Microscopic urinalysis of a healthy dog given 1.5 mg/kg on day 1 and 2.0 mg/kg on day 70, sub-mucosa; format: in vivo
Experimental: (§1) Before each dose, the dog was examined by clinical chemistry, hematology, and urinalysis. Additional examinations of clinical chemistry and hematology were performed on days 7, 14, and 42 after the first dose. Additional tests of urinalysis were performed on days 7 and 14 after the first dose. The potential drug-induced toxicities were monitored for 56 days after the second dose. Specifically, clinical chemistry and urinalysis were performed on days 7, 14, 21, and 56, and hematology was performed on days 7, 14, and 56 after the second dose to evaluate the tolerability and toxicity of the formulation.
Microscopic urinalyses were performed at pre- and post-dose for both injections. The injections were given via the sub-mucosa in the mouth.

[2] = tested on: 4T1.2-neu (murine breast cancer cells); experiment: Anti-proliferative activity (Resazurin Blue, 72 hours); format: cell-based; conditions: mean ± S.E.M., cisplatin basis
Experimental: MDA-1986 (human head and neck squamous cell carcinoma), 4T1.2-neu (murine breast cancer cells), and A2058 (human melanoma) cells were maintained in Dulbecco's Modified Eagle Medium (DMEM, Corning, Manassas, Va.) with 4.5 g/L glucose, 4.5 g/L L-glutamine, and 10% fetal bovine serum in a humidified incubator at 37° C. and 5% CO2. Cells were seeded into 96-well plates (3,000 cells/well in 90 μL media) and allowed to attach overnight. […] Resazurin Blue (Acros Organics, Geel, Belgium) in PBS was added to each well (5-μM final concentration; 10-μL addition) and incubated at 37° C. for 4 hours. Fluorescence (λex 550 nm, λem 605 nm) was quantified with a SpectraMax Gemini XS plate-reader (Molecular Devices, Sunnyvale, Calif.). The relative growth of cells incubated with each compound concentration was normalized to vehicle-treated controls (100% proliferation). Data from at least three separate experiments performed in duplicate was analyzed using non-linear regression (GraphPad Prism 5.0) to generate IC50 values.

[3] = Clinical chemistry of a healthy dog given 1.5 mg/kg on day 1 and 2.0 mg/kg on day 70, sub-mucosa; format: in vivo
Experimental: as §1
Clinical chemistry examinations were performed at pre- and post-dose for both injections. The injections were given via the sub-mucosa in the mouth.

Plasma Pt quantitation = conditions: s.c. 10 mg/kg, between 24 and 72 hours
Experimental: Whole blood was centrifuged (1500×g, 5 min., 4° C., no brake). Top layer (plasma) and middle layer (white blood cells) were transferred to new tubes. Plasma was frozen (−20° C.) until analysis. […] The white blood cell pellet was washed twice with cold PBS and re-suspended in 9 mL of white blood cell buffer (10-mM Tris, pH 7.4, 2.3% NaCl, 2-mM EDTA), and 900 μL of 1.1-M NH4HCO3, 900 μL of 10% SDS, and 75 μL of 2% Proteinase K were added and incubated at 42° C. overnight. Then, 3.3 mL of 5-M NaCl was added, samples shaken vigorously, and centrifuged twice (3200×g, 5 min, 4° C.), each time discarding the pellet. DNA was pelleted with 20 mL of ice-cold 100% ethanol and centrifuged (3200×g, 5 min, 4° C.); the DNA pellet was washed twice with 75% ethanol, re-suspended in water, and quantitated. DNA was digested in 1% HNO3 (800 μL total volume) overnight at 70° C. DNA samples were diluted 1:10 in 1% HNO3 and plasma samples were diluted 1:10,000 in 1% HNO3. Diluted samples were analyzed for Pt content using ICP-MS with a calibration curve from 1-1000 ppt.

## HA-cis-[Pt(NH3)2(N^α-Acetyl-L-Lysine)] [75HA-Lys-Pt]
[1]; 2 mg/kg, 7 days after
  Cast: Rare triple
  Trpl Ph Crystal: Rare
[1]; 2 mg/kg, 14 days after
  urine Red Blood Cells: 16-30
[1]; 2 mg/kg, 21 days after
  Bac-U: Few
  Trpl Ph Crystal: Rare triple
  urine Red Blood Cells: 1-5
[1]; 2 mg/kg, 56 days after
  Bac-U: Rare
  Trpl Ph Crystal: Few
  urine Red Blood Cells: TNTC
[1]; […], 7 days after
  Bac-U: Moderate
  Trpl Ph Crystal: Few
[1]; […], 14 days
  Bac-U: Few
[2]
  IC50: 80.1 ± 12.7 µM
[3]; 2 mg/kg, 7-days post-dose
  ALP elevation: 0.7 fold
  ALT elevation: 4.6 fold
  AST elevation: 8.7 fold
[3]; 2 mg/kg, 8-weeks post-dose
  ALP, higher than the pre-dose level: 0.27 fold
[3]; 2 mg/kg, 7 days after
  Alanine aminotransferase: 330 U/L
  Albumin: 2.5 g/dL
  Alkaline phosphatase: 237 U/L
  Aspartate aminotransferase: 309 U/L
  Calcium: 9.3 mg/dL
  Cholesterol: 81 mg/dL
  Creatine kinase: 105 U/L
  Creatinine: 0.25 mg/dL
  Gamma glutamyltransferase: 0 U/L
  Globulin: 2.9 g/dL
  Glucose: 83 mg/dL
  Inorganic Phosphorus: 2.8 mg/dL
  Total Bilirubin: 0.3 mg/dL
  Total Protein: 5.4 g/dL
  Triglyceride: 32 mg/dL
  Urea Nitrogen: 11 mg/dL
[3]; 2 mg/kg, 14 days after
  Alanine aminotransferase: 223 U/L
  Albumin: 2.4 g/dL
  Alkaline phosphatase: 249 U/L
  Calcium: 8.6 mg/dL
  Cholesterol: 75 mg/dL
  Creatine kinase: 143 U/L
  Creatinine: 0.3 mg/dL
  Gamma glutamyltransferase: 0 U/L
  Glucose: 76 mg/dL
  Inorganic Phosphorus: 3.4 mg/dL
  Total Bilirubin: 0.1 mg/dL
  Total Protein: 5.5 g/dL
  Triglyceride: 43 mg/dL
  Urea Nitrogen: 14 mg/dL
[3]; 2 mg/kg, 21 days after
  Alanine aminotransferase: 198 U/L
  Albumin: 2.7 g/dL
  Alkaline phosphatase: 219 U/L
  Aspartate aminotransferase: 129 U/L
  Calcium: 9.3 mg/dL
  Cholesterol: 70 mg/dL
  Creatinine: 0.33 mg/dL
  Gamma glutamyltransferase: 0 U/L
  Glucose: 64 mg/dL
  Inorganic Phosphorus: 3.9 mg/dL
  Total Bilirubin: 0.2 mg/dL
  Total Protein: 5.8 g/dL
  Triglyceride: 39 mg/dL
  Urea Nitrogen: 14 mg/dL
[3]; 2 mg/kg, 56 days after
  Alanine aminotransferase: 220 U/L
  Albumin: 3.0 g/dL
  Alkaline phosphatase: 173 U/L
  Aspartate aminotransferase: 138 U/L
  Calcium: 9.7 mg/dL
  Cholesterol: 86 mg/dL
  Creatine kinase: 117 U/L
  Creatinine: 0.3 mg/dL
  Gamma glutamyltransferase: 0 U/L
  Globulin: 3.3 g/dL
  Glucose: 73 mg/dL
  Inorganic Phosphorus: 2.5 mg/dL
  Total Bilirubin: 0.4 mg/dL
  Total Protein: 6.3 g/dL
  Triglyceride: 42 mg/dL
  Urea Nitrogen: 14 mg/dL
[3]; […], 7 days after
  Alanine aminotransferase: 36 U/L
  Albumin: 2.4 g/dL
  Alkaline phosphatase: 132 U/L
  Aspartate aminotransferase: 67 U/L
  Calcium: 8.8 mg/dL
  Cholesterol: 89 mg/dL
  Creatine kinase: 93 U/L
  Creatinine: 0.33 mg/dL
  Globulin: 2.6 g/dL
  Glucose: 70 mg/dL
  Inorganic Phosphorus: 3.3 mg/dL
  Total Bilirubin: 0.1 mg/dL
  Total Protein: 5.0 g/dL
  Triglyceride: 34 mg/dL
  Urea Nitrogen: 13 mg/dL
[3]; […], 14 days
  Alanine aminotransferase: 57 U/L
  Albumin: 2.4 g/dL
  Alkaline phosphatase: 116 U/L
  Aspartate aminotransferase: 89 U/L
  Calcium: 9.4 mg/dL
  Cholesterol: 97 mg/dL
  Creatine kinase: 207 U/L
  Creatinine: 0.35 mg/dL
  Globulin: 2.8 g/dL
  Glucose: 80 mg/dL
  Inorganic Phosphorus: 5.5 mg/dL
  Total Bilirubin: 0.0 mg/dL
  Total Protein: 5.2 g/dL
  Triglyceride: 38 mg/dL
  Urea Nitrogen: 19 mg/dL
[3]; […], 42 days
  Alanine aminotransferase: 74 U/L
  Albumin: 3.0 g/dL
  Alkaline phosphatase: 125 U/L
  Aspartate aminotransferase: 39 U/L
  Creatine kinase: 159 U/L
  Globulin: 2.5 g/dL
  Total Bilirubin: 0.0 mg/dL
  Total Protein: 5.5 g/dL
Plasma Pt quantitation
  plasma Pt plateau concentration: 4-5 μg Pt/mL plasma
